Read-outs that look alike come from different tables or passages of the source.
What was measured:
Assay in all cases: competition phage ELISA
[1] = target: Recombinant human Bcl-xL with a 25 amino acid truncation of its C-terminus (human) (UniProt Q07817)
[2] = target: mouse Mcl-1 with truncations of 151 amino acid residues at its N-terminus and 23 residues at its C-terminus (mouse) (UniProt P97287)
[3] = target: Recombinant human Bcl-xL with a 25 amino acid truncation of its C-terminus (human) (UniProt Q07817); remark: listed apart in the source

Chain of mouse Mcl-1 with truncations of 151 amino acid residues at its N-terminus and 23 residues at its C-terminus (mouse) (P97287 152-308): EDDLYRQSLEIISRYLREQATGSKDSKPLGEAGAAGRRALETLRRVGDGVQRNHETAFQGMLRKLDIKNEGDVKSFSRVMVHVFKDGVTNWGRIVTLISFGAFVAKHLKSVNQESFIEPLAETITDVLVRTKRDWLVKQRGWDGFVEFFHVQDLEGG
Chain of Recombinant human Bcl-xL with a 25 amino acid truncation of its C-terminus (human) (Q07817 1-208): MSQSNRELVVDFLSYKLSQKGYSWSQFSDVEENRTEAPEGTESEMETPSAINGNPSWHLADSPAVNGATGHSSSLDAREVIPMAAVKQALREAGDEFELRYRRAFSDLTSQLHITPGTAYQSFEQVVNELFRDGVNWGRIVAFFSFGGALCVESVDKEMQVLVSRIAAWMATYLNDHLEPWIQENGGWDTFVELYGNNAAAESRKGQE

| Binder | Fold/wt [1] | IC50 [1] | Fold/wt [2] | IC50 [2] | IC50 [3] |
| --- | --- | --- | --- | --- | --- |
| QEDIIRNIARHLAQVGDSMDRSIPPG [Bid BH3 wild type, phage-displayed] | 1 fold | 11 nM | 1 fold | 99 nM | – |
| PSSTMGQVGAQLAIIGDDINRRYDSE [Bak BH3 R10A, phage-displayed] | 3 fold | 163 nM | 1 fold | 29 nM | – |
| PSATMGQVGRQLAIIGDDINRRYDSE [Bak BH3 S3A, phage-displayed] | 1 fold | 25 nM | 1 fold | 17 nM | – |
| PSSTMGQVGRQLAIIGDDINRRYDSA [Bak BH3 E26A, phage-displayed] | 1 fold | 29 nM | < 1 fold | 10 nM | – |
| PSSTMGQVGRQLAIIGDDINRRADSE [Bak BH3 Y23A, phage-displayed] | 1 fold | 52 nM | 6 fold | 117 nM | – |
| PSSTMGQVGRQLAIIGDDINRRYDSE [Bak BH3 wild type, phage-displayed] | 1 fold | 49 nM | 1 fold | 21 nM | – |
| PSSTMGQVGRALAIIGDDINRRYDSE [Bak BH3 Q11A, phage-displayed] | 5 fold | 238 nM | 1 fold | 16 nM | – |
| PSSTMEQVGRQLAIIGDDINRRYDSE [Bak BH3 G6E, phage-displayed] | < 1 fold | 14 nM | 1 fold | 11 nM | – |
| ASSTMGQVGRQLAIIGDDINRRYDSE [Bak BH3 P1A, phage-displayed] | 1 fold | 31 nM | 1 fold | 18 nM | – |
| PSSTMGQVGRQLAIIGDDINRRYDAE [Bak BH3 S25A, phage-displayed] | 1 fold | 31 nM | 1 fold | 18 nM | – |
| QEDIIRNIARHLAQVGDSMDRSIPPE [Bid BH3 G26E, phage-displayed] | 2 fold | 17 nM | 1 fold | 94 nM | – |
| PSSTMGQVGRQLAIIGDDINRAYDSE [Bak BH3 R22A, phage-displayed] | 1 fold | 37 nM | 1 fold | 16 nM | – |
| PSSTMGAVGRQLAIIGDDINRRYDSE [Bak BH3 Q7A, phage-displayed] | 1 fold | 48 nM | 1 fold | 20 nM | – |
| PSSTMGQVGRQLAIIGDDINARYDSE [Bak BH3 R21A, phage-displayed] | 2 fold | 87 nM | 1 fold | 17 nM | – |
| PSSAMGQVGRQLAIIGDDINRRYDSE [Bak BH3 T4A, phage-displayed] | 1 fold | 28 nM | 1 fold | 14 nM | – |
| PSSTMGQVGRQLAIIGDDIARRYDSE [Bak BH3 N20A, phage-displayed] | 2 fold | 111 nM | 1 fold | 23 nM | – |
| NLWAAQRYGRELRRMSDEFVDSFKKG [Bad BH3 wild type, phage-displayed] | 1 fold | 2 nM | – | – | 1 nM |
| PSSTAGQVGRQLAIIGDDINRRYDSE [Bak BH3 M5A, phage-displayed] | < 1 fold | 15 nM | 1 fold | 18 nM | – |
| PSSTMGQVGRQLAIIGDDINRRYASE [Bak BH3 D24A, phage-displayed] | 1 fold | 30 nM | < 1 fold | 9 nM | – |
| PSSTMGQVGRQLAAIGDDINRRYDSE [Bak BH3 I14A, phage-displayed] | 1 fold | 66 nM | 1 fold | 14 nM | – |
| PSSTMGQVGRQLAIIGDAINRRYDSE [Bak BH3 D18A, phage-displayed] | 1 fold | 33 nM | 1 fold | 14 nM | – |
| PASTMGQVGRQLAIIGDDINRRYDSE [Bak BH3 S2A, phage-displayed] | 1 fold | 28 nM | 1 fold | 16 nM | – |
